Where no end group is shown, it is not given here.
B1: MAXCAP 1 (peptide)
peptide: HSDGIFTDSYSSRYRKQMAVKKYLAAVLPGNSVFKECMKQKKKEFKAGK
modifications: ends and bridges not checked
B2: MAXCAP 4 (peptide)
peptide: HSDGIFAPGNSVFKECMKQKKKEFKAGK
modifications: ends and bridges not checked

Molecular target: human PAC1 receptor (human), P41586
Assay: cell-based or functional assay

Sequence of human PAC1 receptor (human), P41586 (P41586 21-468): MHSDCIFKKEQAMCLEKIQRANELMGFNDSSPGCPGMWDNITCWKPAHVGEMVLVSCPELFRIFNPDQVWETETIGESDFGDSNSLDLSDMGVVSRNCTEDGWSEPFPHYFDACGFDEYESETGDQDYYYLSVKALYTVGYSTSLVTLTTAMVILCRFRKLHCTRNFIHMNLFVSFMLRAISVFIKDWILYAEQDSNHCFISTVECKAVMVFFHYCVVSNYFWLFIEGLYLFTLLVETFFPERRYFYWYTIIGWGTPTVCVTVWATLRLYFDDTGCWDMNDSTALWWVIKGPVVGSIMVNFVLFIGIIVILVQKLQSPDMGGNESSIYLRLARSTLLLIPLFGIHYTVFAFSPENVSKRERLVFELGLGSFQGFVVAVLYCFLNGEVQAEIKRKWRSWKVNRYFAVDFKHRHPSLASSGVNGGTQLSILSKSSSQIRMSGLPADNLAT

Row | Binder | cAMP (fmol) at 1 nM [fmol] | cAMP (fmol) at 10 nM [fmol] | cAMP (fmol) at 100 nM [fmol] | cAMP (fmol) at 1 µM [fmol] | cAMP (fmol) at 10 µM [fmol]
1 | B1 | 3170 | 6220 | 4710 | – | –
2 | B2 | – | 4060 | 6400 | 6400 | 5780

From patent US20220251162A1
